In patent US20220185871A1:
pKd: −log10 of the molar value.

Target: Man9-V3 glycopeptide
Assay: BLI (Octet Red96), biotinylated Man9-V3 on streptavidin sensors, antibody in solution, bivalent avidity model

Row | Substance | pKd
1 | DH270.1 (antibody) | 6.48
2 | DH270.6 (antibody) | 6.73
